The results in this text go back to PMC4771738.

One assay has as its target GFP-dynactin 6 (UniProt O00399). The assay can be described thus: co-IP; HEK 293 cells co-transfected with myc-tagged Rab and GFP fusion; lysis in 50 mM Tris pH 7.4, 150 mM NaCl, 1% Triton X-100; GFP fusions precipitated on GBP agarose beads, room temperature 1.5 h; blot for myc and GFP; co-IP efficiency = co-IP / input.
A further assay concerns the target GFP-syntaxin 8 (UniProt Q9UNK0). The description is as above.
UniProt Q9UNK0, sequence (Q9UNK0 whole entry): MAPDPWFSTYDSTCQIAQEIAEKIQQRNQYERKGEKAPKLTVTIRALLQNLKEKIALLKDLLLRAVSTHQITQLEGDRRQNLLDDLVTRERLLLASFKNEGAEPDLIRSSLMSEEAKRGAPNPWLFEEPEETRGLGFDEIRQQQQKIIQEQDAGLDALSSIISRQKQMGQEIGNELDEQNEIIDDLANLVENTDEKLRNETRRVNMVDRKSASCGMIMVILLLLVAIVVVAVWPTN

UniProt O00399, sequence (O00399 whole entry, the tested form may be a part): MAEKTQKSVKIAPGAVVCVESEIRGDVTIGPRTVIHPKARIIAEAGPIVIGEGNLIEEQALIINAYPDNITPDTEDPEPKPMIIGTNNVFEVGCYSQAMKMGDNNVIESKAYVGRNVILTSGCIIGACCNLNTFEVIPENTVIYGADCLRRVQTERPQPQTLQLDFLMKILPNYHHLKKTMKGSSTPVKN

Turning to “myc-tagged GTP-locked Rab41/6d (from UniProt Q5JT25 1-222) (natural protein)”, the co-IP efficiency (co-IP divided by input) was found to be 2.7% with GFP-dynactin 6 and 3.3% with GFP-syntaxin 8.

As for “myc-tagged GDP-locked Rab41/6d (from UniProt Q5JT25 1-222) (natural protein)”, the co-IP efficiency (co-IP divided by input) with GFP-dynactin 6 worked out at 2%; with GFP-syntaxin 8, 1.9%.
